Reference: patent US20190194280A1

B1: Aβ3-12 or APP 770 (E674-V683) (peptide)
peptide: EFRHDSGYEV
B2: Aβ15-24 or APP 770 (Q686-V695) (peptide)
peptide: QKLVFFAEDV

Molecular target: Serum samples collected at week 16 from patients immunized with UBI AD vaccine (UB-311)
Assay: comp. ELISA, serum P105

Binder	IC50-based peak height
B1	0
B2	0

Molecular target: Serum samples collected at week 16 from patients immunized with UBI AD vaccine (UB-311)
Assay: comp. ELISA, serum P101

Binder	IC50-based peak height
B1	0
B2	0

Molecular target: Serum samples collected at week 16 from patients immunized with UBI AD vaccine (UB-311)
Assay: comp. ELISA, serum P106

Binder	IC50-based peak height
B1	0
B2	0

Molecular target: Serum samples collected at week 16 from patients immunized with UBI AD vaccine (UB-311)
Assay: comp. ELISA, serum P202

Binder	IC50-based peak height
B1	0
B2	0

Molecular target: Serum samples collected at week 16 from patients immunized with UBI AD vaccine (UB-311)
Assay: comp. ELISA, serum P210

Binder	IC50-based peak height
B1	0
B2	0

Molecular target: Serum samples collected at week 16 from patients immunized with UBI AD vaccine (UB-311)
Assay: comp. ELISA, serum P103

Binder	IC50-based peak height
B1	0
B2	0

Molecular target: Immune sera of baboons immunized with UBI AD vaccine
Assay: competitive inhibition ELISA

Binder	% inhibition at 0 µg/mL [%]	% inhibition at 0.25 µg/mL [%]	% inhibition at 0.5 µg/mL [%]	% inhibition at 1 µg/mL [%]	% inhibition at 2 µg/mL [%]	% inhibition at 8 µg/mL [%]	% inhibition at 32 µg/mL [%]
B1	0	1	1	0	0	0	3

Molecular target: Serum samples collected at week 16 from patients immunized with UBI AD vaccine (UB-311)
Assay: comp. ELISA, serum P205

Binder	IC50-based peak height
B1	0
B2	0

Molecular target: Serum samples collected at week 16 from patients immunized with UBI AD vaccine (UB-311)
Assay: comp. ELISA, serum P108

Binder	IC50-based peak height
B1	0
B2	0

Molecular target: Serum samples collected at week 16 from patients immunized with UBI AD vaccine (UB-311)
Assay: comp. ELISA, serum P104

Binder	IC50-based peak height
B1	0
B2	0

Molecular target: Serum samples collected at week 16 from patients immunized with UBI AD vaccine (UB-311)
Assay: comp. ELISA, serum P207

Binder	IC50-based peak height
B1	0
B2	0

Molecular target: Serum samples collected at week 16 from patients immunized with UBI AD vaccine (UB-311)
Assay: comp. ELISA, serum P201

Binder	IC50-based peak height
B1	0
B2	0

Molecular target: Serum samples collected at week 16 from patients immunized with UBI AD vaccine (UB-311)
Assay: comp. ELISA, serum P204

Binder	IC50-based peak height
B1	0
B2	0

Molecular target: Serum samples collected at week 16 from patients immunized with UBI AD vaccine (UB-311)
Assay: comp. ELISA, serum P107

Binder	IC50-based peak height
B1	0
B2	0

Molecular target: Serum samples collected at week 16 from patients immunized with UBI AD vaccine (UB-311)
Assay: comp. ELISA, serum P206

Binder	IC50-based peak height
B1	0
B2	0

Molecular target: Serum samples collected at week 16 from patients immunized with UBI AD vaccine (UB-311)
Assay: comp. ELISA, serum P209

Binder	IC50-based peak height
B1	0
B2	0

Molecular target: Serum samples collected at week 16 from patients immunized with UBI AD vaccine (UB-311)
Assay: comp. ELISA, serum P208

Binder	IC50-based peak height
B1	0
B2	0

Molecular target: Serum samples collected at week 16 from patients immunized with UBI AD vaccine (UB-311)
Assay: comp. ELISA, serum P109

Binder	IC50-based peak height
B1	0
B2	0

Molecular target: Serum samples collected at week 16 from patients immunized with UBI AD vaccine (UB-311)
Assay: comp. ELISA, serum P102

Binder	IC50-based peak height
B1	0
B2	0

Molecular target: Serum samples collected at week 16 from patients immunized with UBI AD vaccine (UB-311)
Assay: comp. ELISA, serum P203

Binder	IC50-based peak height
B1	0
B2	0
